# Laboratory results: patent US20250346644A1 (LATTICON SUZHOU BIOPHARMACEUTICALS, published 2025)
# Residue numbers refer to the chain shown, from its start. Names may count otherwise. Like-named read-outs stand apart in the source and are kept apart here.
# T1: FcγRIIa (UniProt P12318 36-218, limits assumed)
# T1 sequence (looked up): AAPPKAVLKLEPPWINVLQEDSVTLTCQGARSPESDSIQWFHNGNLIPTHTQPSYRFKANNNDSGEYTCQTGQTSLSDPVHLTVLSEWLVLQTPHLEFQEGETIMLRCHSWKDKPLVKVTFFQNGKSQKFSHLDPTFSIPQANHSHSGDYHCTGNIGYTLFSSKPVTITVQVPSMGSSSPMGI
# T2: mIL2-his (mouse, UniProt P04351 21-169)
# T2 construct: also called wild-type mouse IL-2 (with a his-tag); not shown: his-tag
# T2 sequence (looked up): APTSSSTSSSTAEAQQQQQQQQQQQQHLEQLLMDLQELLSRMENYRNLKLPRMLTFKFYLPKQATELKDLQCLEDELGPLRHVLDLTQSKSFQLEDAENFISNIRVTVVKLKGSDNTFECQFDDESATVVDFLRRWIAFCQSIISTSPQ
# T3: hIL2-TM-his (human, UniProt P60568 21-153)
# T3 construct: also called hIL-2 mutein containing three point mutations K64G, N90R and M104E (with a his-tag); not shown: his-tag
# T3 chain: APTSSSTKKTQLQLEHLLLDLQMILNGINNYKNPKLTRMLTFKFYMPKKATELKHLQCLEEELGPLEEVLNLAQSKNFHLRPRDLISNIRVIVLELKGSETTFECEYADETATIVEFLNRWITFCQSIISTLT
# B1: K2G11-pITM (antibody)
# VH: QVQLVQSGAEVKKPGATVKISCKVSGDTITAYYMHWVRQAPGQGLEWIGRIDPDDDSTKYAENFKGRVTITADTSTDTAYMELSSLRSEDTAVYYCTTITFLYSRELRWFAYWGQGTLVTVSSASTKGPSVFPLAPSSKSTSGGTAALGCLVKDYFPEPVTVSWNSGALTSGVHTFPAVLQSSGLYSLSSVVTVPSSSLGTQTYICNVDHKPSNTKVDKRVEPKSCDKTHTCPPCPAPEFEGGPSVFLFPPKPKDTLMISRTPEVTCVVVDVSHEDPEVQFNWYVDGVEVHNAKTKPREEQYNSTYRVVSVLTVLHQDWLNGKEYKCKVSNKALPASIEKTISKAKGQPREPQVYTLPPSRDELTKNQVSLTCLVKGFYPSDIAVEWESNGQPENNYKTTPPVLDSDGSFFLYSKLTVDKSRWQEGNVFSCSVMHEALHNHYTQKSLSLSPGK
# VL: DIVLTQSPATLSLSPGERATLSCQASQYISNYLSWYQQKPGQAPRLLIYSATSLASGIPARFSGSRSGTDFTLTISSLEPEDFAVYYCLQHYSTPYTFGQGTKLEIK
# notes: K2G11 with pI (N203D/K274Q/Q419E) and TM (L234F/L235E/P331S) mutations, EU numbering, in the hIgG1 heavy chain constant region; also called humanized anti-IL-2 antibody K2G11-pITM; copies: 2 + 2
# B2: hS4B6-H6K3 (antibody, V domains shown)
# VH: QVQLVQSGAEVKKPGATVKISCKVSGDTITAYYLHWVRQAPGQGLEWIGRIDPEDDSTKYAENFKNRVTITADTSTNTAYMELSSLRSEDTAVYYCTTVTFYYSRELRWFAYWGQGTLVTVSS
# VL: B1 VL with Y28D, S30G, S56D, F71Y
# notes: full antibody
# Key:
# [1] = biological target: FcγRI (UniProt P12314 16-288, limits assumed); test: BLI (ForteBio), series of concentrations, not labelled on the sheet
# Sequence of FcγRI (P12314 16-288 limits assumed): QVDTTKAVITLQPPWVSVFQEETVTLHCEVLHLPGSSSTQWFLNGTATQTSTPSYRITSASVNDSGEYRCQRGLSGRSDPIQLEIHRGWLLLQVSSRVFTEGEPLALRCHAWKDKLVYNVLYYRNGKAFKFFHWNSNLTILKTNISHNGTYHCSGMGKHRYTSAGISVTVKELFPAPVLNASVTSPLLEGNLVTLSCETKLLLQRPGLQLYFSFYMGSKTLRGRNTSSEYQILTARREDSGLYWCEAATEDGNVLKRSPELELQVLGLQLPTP
# [2] = biological target: T1, FcγRIIa; test: as above
# [3] = biological target: FcγRIIIa-158F (UniProt P08637 17-208, limits assumed); test: as above
# Sequence of FcγRIIIa-158F (P08637 17-208 limits assumed): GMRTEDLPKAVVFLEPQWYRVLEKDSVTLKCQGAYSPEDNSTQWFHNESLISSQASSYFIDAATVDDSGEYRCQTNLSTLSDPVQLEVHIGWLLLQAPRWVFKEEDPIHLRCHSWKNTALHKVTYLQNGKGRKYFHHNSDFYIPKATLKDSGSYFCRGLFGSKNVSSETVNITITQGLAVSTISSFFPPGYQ
# [4] = biological target: T2, mIL2-his; test: BLI ForteBio, Ab on Protein A sensor
# [5] = biological target: T4, hIL2-DM-his (human, UniProt P60568 21-153); test: BLI ForteBio, Ab on Protein A sensor
# T4 construct: expressed in ExpiCHO-S cells, nickel-column purified; also called hIL-2 mutein containing two point mutations K64G and N90R (with a his-tag); not shown: his-tag
# [6] = biological target: T3, hIL2-TM-his; test: BLI ForteBio, Ab on Protein A sensor
# [7] = biological target: T4, hIL2-DM-his; test: BLI ForteBio, Ab on Protein A sensor; remark: listed apart in the source
# Target sequence in this assay (P60568 21-153 K84G/N110R): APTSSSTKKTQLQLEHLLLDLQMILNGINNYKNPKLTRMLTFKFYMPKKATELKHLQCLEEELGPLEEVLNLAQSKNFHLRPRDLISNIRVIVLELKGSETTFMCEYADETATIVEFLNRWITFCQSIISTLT
# [8] = biological target: T2, mIL2-his; test: ELISA, antibody captured by anti-human IgG, mIL2-his titrated
# [9] = biological target: T5, hIL2-his (human, UniProt P60568 21-153); test: ELISA (section 2.1.1): antibody (13.3 nM) captured on coated goat anti-human IgG, hIL2-his titrated (the x axis is the antigen concentration), HRP anti-6xHis
# T5 construct: the construct is not described further; not shown: his-tag
Binder,binding result [1],binding result [2],binding result [3],Kd [4] [nM],koff [4] [s⁻¹],kon [4] [M⁻¹ s⁻¹],Kd [5] [nM],koff [5] [s⁻¹],kon [5] [M⁻¹ s⁻¹],Kd [6] [nM],koff [6] [s⁻¹],kon [6] [M⁻¹ s⁻¹],Binding Response (nm) [7] [nm],Kd [7] [nM],koff [7] [s⁻¹],kon [7] [M⁻¹ s⁻¹],EC50 [8] [µg/mL],binding result [9]
B1,no binding (tested: not printed on the sheet),no binding (tested: not printed on the sheet),no binding (tested: not printed on the sheet),,,,,,,,,,,,,,,
B2,,,,1,0.00018,179000,45.3,0.01,222000,24,0.00569,237000,0.133,46.9,0.0193,413000,0.0183,no binding (tested: 2 µg/mL)
